We go through 56 variants from the RNAGym collection of RNA variant scans (doi:10.7554/elife.90254).

The labels stand for the following.
B1: LINE1-mini (parent)
chain: GGCAGAGCUCAACACAGCGUGGCAAAGUGGCUGUGGCUAGACUGCC

In the data set the parent is B1. As to the kind of experiment: self-cleavage, relative activity (ratio to wild type); higher = more cleavage; in vitro, sequencing; the parent is a self-cleaving ribozyme.
Regarding GGGAGAGCUCAACACAGCGUGGCAAAGUGGCUGUGGCCAGACUGCC [C3G U38C], the self-cleavage is 0.22.
GGGAGAGCUCAACACAGCGUGGCAAAGUGGCUGUGGCGAGACUGCC [C3G U38G]: the self-cleavage was determined as 0.05.
GGGAGAGCUCAACACAGCGUGGCAAAGUGGCUGUGGCAAGACUGCC [C3G U38A]: the self-cleavage was 0.18.
Turning to GGGAGAGCUCAACACAGCGUGGCAAACUGGCUGUGGCUAGACUGCC [C3G G27C], the self-cleavage is 0.13.
As to GGGAGAGCUCAACACAGCGUGGCAAAUUGGCUGUGGCUAGACUGCC [C3G G27U], the self-cleavage was determined as 0.32.
The value for GGGAGAGCUCAACACAGCGUGGCAAAAUGGCUGUGGCUAGACUGCC [C3G G27A] was 0.21.
As for GGGAGAGCUCAACACAGCGUGGCAAAGUGGCUGUGGCUACACUGCC [C3G G40C], the self-cleavage was determined as 0.1.
GGGAGAGCUCAACACAGCGUGGCAAAGUGGCUGUGGCUAAACUGCC [C3G G40A]: the self-cleavage worked out at 0.39.
Take GGGAGAGCUCAACACAGCGUGGCAAAGUGGCUGUGGCUAUACUGCC [C3G G40U]: the self-cleavage is 0.13.
To GGGAGAGCUCAACACAGCGUGGCAAAGCGGCUGUGGCUAGACUGCC [C3G U28C] belongs 0.16.
For GGGAGAGCUCAACACAGCGUGGCAAAGAGGCUGUGGCUAGACUGCC [C3G U28A], the self-cleavage worked out at 0.22.
For GGGAGAGCUCAACACAGCGUGGCAAAGGGGCUGUGGCUAGACUGCC [C3G U28G], the self-cleavage was determined as 0.19.
As to GGGAGAGCGCAACACAGCGUGGCAAAGUGGCUGUGGCUAGACUGCC [C3G U9G], the self-cleavage is 0.3.
As for GGGAGAGCCCAACACAGCGUGGCAAAGUGGCUGUGGCUAGACUGCC [C3G U9C], the self-cleavage was found to be 0.03.
For GGGAGAGCACAACACAGCGUGGCAAAGUGGCUGUGGCUAGACUGCC [C3G U9A], the self-cleavage is 0.27.
Consider GGGAGACCUCAACACAGCGUGGCAAAGUGGCUGUGGCUAGACUGCC [C3G G7C], for which the self-cleavage was 0.05.
With GGGAGAUCUCAACACAGCGUGGCAAAGUGGCUGUGGCUAGACUGCC [C3G G7U], the self-cleavage was found to be 0.22.
To GGGAGAGCUCAACACAGCGUGGCAAAGUGGCUUUGGCUAGACUGCC [C3G G33U] belongs 0.2; to GGGAGAGCUCAACACAGCGUGGCAAAGUGGCUCUGGCUAGACUGCC [C3G G33C], 0.12.
In the case of GGGAGAGCUCAACACAGCGUGGCAAAGUGGCUAUGGCUAGACUGCC [C3G G33A], the self-cleavage is 0.23.
GGGAGAGCUCAACACAGCGUGGCAAAGUGGCUGUUGCUAGACUGCC [C3G G35U]: the self-cleavage came out at 0.28.
For GGGAGAGCUCAACACAGCGUGGCAAAGUGGCUGUAGCUAGACUGCC [C3G G35A], the self-cleavage was 0.23.
The value for GGGAGAGCUCAACACAGCGUGGCAAAGUGGCUGUCGCUAGACUGCC [C3G G35C] was 0.13.
Take GGGAGAGCUCAACACAGCCUGGCAAAGUGGCUGUGGCUAGACUGCC [C3G G19C]: the self-cleavage turned out to be 0.16.
As for GGGAGAGCUCAACACAGCUUGGCAAAGUGGCUGUGGCUAGACUGCC [C3G G19U], the self-cleavage was determined as 0.56.
With GGGAGAGCUCAACACAGCAUGGCAAAGUGGCUGUGGCUAGACUGCC [C3G G19A], the self-cleavage was 0.59.
Take GGGAGAGCUCAACACAGCGUGGCAAAGUGGCUGUGACUAGACUGCC [C3G G36A]: the self-cleavage was determined as 0.74.
The value for GGGAGAGCUCAACACAGCGUGGCAAAGUGGCUGUGUCUAGACUGCC [C3G G36U] was 0.2.
For the variant GGGAGAGCUCAACACAGCGUGGCAAAGUGGCUGUGCCUAGACUGCC [C3G G36C], the self-cleavage was determined as 0.66.
Take GGGAGAGCUCAACACAGCGUGGCAAAGUGGCCGUGGCUAGACUGCC [C3G U32C]: the self-cleavage was 0.14.
As for GGGAGAGCUCAACACAGCGUGGCAAAGUGGCAGUGGCUAGACUGCC [C3G U32A], the self-cleavage turned out to be 0.05.
For the variant GGGAGAGCUCAACACAGCGUGGCAAAGUGGCGGUGGCUAGACUGCC [C3G U32G], the self-cleavage was found to be 0.11.
To GGGAGAGCUCAACACAGCGUGGCAAAGUGCCUGUGGCUAGACUGCC [C3G G30C] belongs 0.32; to GGGAGAGCUCAACACAGCGUGGCAAAGUGUCUGUGGCUAGACUGCC [C3G G30U], 0.71; to GGGAGAGCUCAACACAGCGUGGCAAAGUGACUGUGGCUAGACUGCC [C3G G30A], 0.82.
The value for GGGAGAGCUCAACACAGCGUGGCAAAGUGGCUGUGGCUAGACUACC [C3G G44A] was 0.35; that for GGGAGAGCUCAACACAGCGUGGCAAAGUGGCUGUGGCUAGACUUCC [C3G G44U] was 1.21; that for GGGAGAGCUCAACACAGCGUGGCAAAGUGGCUGUGGCUAGACUCCC [C3G G44C] was 0.93.
GGGAGAGCUCAACACAGCGUGGCAAAGUGGCUGCGGCUAGACUGCC [C3G U34C]: the self-cleavage stood at 0.1.
As for GGGAGAGCUCAACACAGCGUGGCAAAGUGGCUGGGGCUAGACUGCC [C3G U34G], the self-cleavage was 0.08.
Regarding GGGAGAGCUCAACACAGCGUGGCAAAGUGGCUGAGGCUAGACUGCC [C3G U34A], the self-cleavage was 0.08.
To GGGAGAGCUCAACACAACGUGGCAAAGUGGCUGUGGCUAGACUGCC [C3G G17A] belongs 0.14; to GGGAGAGCUCAACACACCGUGGCAAAGUGGCUGUGGCUAGACUGCC [C3G G17C], 0.15.
For GGGAGAGCUCAACACAUCGUGGCAAAGUGGCUGUGGCUAGACUGCC [C3G G17U], the self-cleavage worked out at 0.15.
With GGGAGAGCUCAACACAGCGUGUCAAAGUGGCUGUGGCUAGACUGCC [C3G G22U], the self-cleavage was found to be 0.38.
Turning to GGGAGAGCUCAACACAGCGUGCCAAAGUGGCUGUGGCUAGACUGCC [C3G G22C], the self-cleavage is 0.26.
The value for GGGAGAGCUCAACACAGCGUGACAAAGUGGCUGUGGCUAGACUGCC [C3G G22A] was 0.36; that for GGGAGAGCUCAACACAGCGGGGCAAAGUGGCUGUGGCUAGACUGCC [C3G U20G] was 0.41.
Regarding GGGAGAGCUCAACACAGCGCGGCAAAGUGGCUGUGGCUAGACUGCC [C3G U20C], the self-cleavage is 0.41.
To GGGAGAGCUCAACACAGCGAGGCAAAGUGGCUGUGGCUAGACUGCC [C3G U20A] belongs 0.35; to GGGAGAGCUCAACACAGCGUCGCAAAGUGGCUGUGGCUAGACUGCC [C3G G21C], 0.41.
On to GGGAGAGCUCAACACAGCGUAGCAAAGUGGCUGUGGCUAGACUGCC [C3G G21A], for which the self-cleavage was 1.1.
In the case of GGGAGAGCUCAACACAGCGUUGCAAAGUGGCUGUGGCUAGACUGCC [C3G G21U], the self-cleavage turned out to be 0.48.
The value for GGGAGAGCUCAACACAGCGUGGCAAAGUCGCUGUGGCUAGACUGCC [C3G G29C] was 0.43; that for GGGAGAGCUCAACACAGCGUGGCAAAGUAGCUGUGGCUAGACUGCC [C3G G29A] was 0.38; that for GGGAGAGCUCAACACAGCGUGGCAAAGUUGCUGUGGCUAGACUGCC [C3G G29U] was 0.55.
